Where a chain is given by its changes, count along the chain named. Numbers in names are those of the source.
T1: PUF4 RNA-binding domain (Saccharomyces cerevisiae, UniProt P25339 537-888)
T1 sequence: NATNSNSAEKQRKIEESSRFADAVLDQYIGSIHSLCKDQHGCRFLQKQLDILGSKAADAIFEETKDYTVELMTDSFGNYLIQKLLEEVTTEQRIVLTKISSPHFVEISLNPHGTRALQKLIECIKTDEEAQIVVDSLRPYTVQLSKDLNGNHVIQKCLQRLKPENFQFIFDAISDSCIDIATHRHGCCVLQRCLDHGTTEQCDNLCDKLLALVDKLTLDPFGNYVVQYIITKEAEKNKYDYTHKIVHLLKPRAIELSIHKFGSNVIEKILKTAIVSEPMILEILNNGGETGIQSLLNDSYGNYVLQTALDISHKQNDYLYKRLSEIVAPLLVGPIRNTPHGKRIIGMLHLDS

B1: Ic_S2_P4E.1_K4.1_C4.1_H4.1_A4.1_[T5A]_[A6T]_[T7C]_F4.1_[T8G]_[A9T]_T4.1 (ssRNA)
RNA: UUUGAUUAAUAUGAUAUCGUUCUUUCUUGUAAUCGUUUCUUUCUCGAUAUCAUAUUAAUCUUU
B2: Ic_S2_P4E.1_K4.1_C4.1_H4.1_A4.1_[A6G]_[T7G]_F4.1_[A9T]_T4.1 (ssRNA)
RNA: B1 RNA with A32U, U33G, C34G, G35U
B3: Ic_S2_P4E.1_K4.1_C4.1_H4.1_A4.1_[T5A]_[A6T]_F4.1_[T8G]_[A9T]_T4.1 (ssRNA)
RNA: B1 RNA with C34U
B4: Ic_S2_P4E.1_K4.1_C4.1_H4.1_A4.1_[T5A]_[A6T]_[T7C]_F4.1_[A9G]_T4.1 (ssRNA)
RNA: B1 RNA with G35U, U36G
B5: Ic_S2_P4E.1_K4.1_C4.1_H4.1_A4.1_[T5A]_[A6T]_[T7G]_F4.1_[T8C]_[A9C]_T4.1 (ssRNA)
RNA: B1 RNA with C34G, G35C, U36C
B6: Ic_S2_P4E.1_K4.1_C4.1_H4.1_A4.1_[T5A]_[A6T]_[T7A]_F4.1_[T8C]_T4.1 (ssRNA)
RNA: B1 RNA with C34A, G35C, U36A
B7: Ic_S2_P4E.1_K4.1_C4.1_H4.1_A4.1_[T5A]_[A6T]_[T7A]_F4.1_[T8G]_[A9C]_T4.1 (ssRNA)
RNA: B1 RNA with C34A, U36C
B8: Ic_S2_P4E.1_K4.1_C4.1_H4.1_A4.1_[T5A]_[T7C]_F4.1_[A9T]_T4.1 (ssRNA)
RNA: B1 RNA with U33A, G35U
B9: Ic_S2_P4E.1_K4.1_C4.1_H4.1_A4.1_[T5A]_[A6T]_F4.1_[T8A]_[A9T]_T4.1 (ssRNA)
RNA: B1 RNA with C34U, G35A
B10: Ic_S2_P4E.1_K4.1_C4.1_H4.1_A4.1_[A6G]_[T7C]_F4.1_[T8G]_[A9G]_T4.1 (ssRNA)
RNA: B1 RNA with A32U, U33G, U36G
B11: Ic_S2_P4E.1_K4.1_C4.1_H4.1_A4.1_[T5A]_[A6T]_[T7C]_F4.1_[T8A]_[A9T]_T4.1 (ssRNA)
RNA: B1 RNA with G35A
B12: Ic_S2_P4E.1_K4.1_C4.1_H4.1_A4.1_[A6G]_[T7G]_F4.1_[T8C]_[A9G]_T4.1 (ssRNA)
RNA: B1 RNA with A32U, U33G, C34G, G35C, U36G
B13: Ic_S2_P4E.1_K4.1_C4.1_H4.1_A4.1_[T5A]_F4.1_[T8A]_[A9C]_T4.1 (ssRNA)
RNA: B1 RNA with U33A, C34U, G35A, U36C
B14: Ic_S2_P4E.1_K4.1_C4.1_H4.1_A4.1_[T5A]_F4.1_[T8A]_[A9G]_T4.1 (ssRNA)
RNA: B1 RNA with U33A, C34U, G35A, U36G
B15: Ic_S2_P4E.1_K4.1_C4.1_H4.1_A4.1_[T5A]_[T7C]_F4.1_[T8A]_[A9C]_T4.1 (ssRNA)
RNA: B1 RNA with U33A, G35A, U36C
B16: Ic_S2_P4E.1_K4.1_C4.1_H4.1_A4.1_[T5A]_[T7A]_F4.1_[A9C]_T4.1 (ssRNA)
RNA: B1 RNA with U33A, C34A, G35U, U36C
B17: Ic_S2_P4E.1_K4.1_C4.1_H4.1_A4.1_[A6G]_[T7C]_F4.1_[T8C]_T4.1 (ssRNA)
RNA: B1 RNA with A32U, U33G, G35C, U36A
B18: Ic_S2_P4E.1_K4.1_C4.1_H4.1_A4.1_[T5A]_[A6T]_F4.1_[A9T]_T4.1 (ssRNA)
RNA: B1 RNA with C34U, G35U
B19: Ic_S2_P4E.1_K4.1_C4.1_H4.1_A4.1_[T5A]_[T7A]_F4.1_[T8C]_[A9C]_T4.1 (ssRNA)
RNA: B1 RNA with U33A, C34A, G35C, U36C
B20: Ic_S2_P4E.1_K4.1_C4.1_H4.1_A4.1_[T5A]_[A6C]_F4.1_[T8A]_[A9G]_T4.1 (ssRNA)
RNA: B1 RNA with U33C, C34U, G35A, U36G
B21: Ic_S2_P4E.1_K4.1_C4.1_H4.1_A4.1_[T5A]_[A6T]_[T7C]_F4.1_[T8G]_[A9C]_T4.1 (ssRNA)
RNA: B1 RNA with U36C
B22: Ic_S2_P4E.1_K4.1_C4.1_H4.1_A4.1_[T5A]_[A6T]_F4.1_[T8C]_[A9T]_T4.1 (ssRNA)
RNA: B1 RNA with C34U, G35C
B23: Ic_S2_P4E.1_K4.1_C4.1_H4.1_A4.1_[T5A]_[A6T]_[T7A]_F4.1_T4.1 (ssRNA)
RNA: B1 RNA with C34A, G35U, U36A
B24: Ic_S2_P4E.1_K4.1_C4.1_H4.1_A4.1_[T5A]_[A6T]_[T7A]_F4.1_[A9G]_T4.1 (ssRNA)
RNA: B1 RNA with C34A, G35U, U36G
B25: Ic_S2_P4E.1_K4.1_C4.1_H4.1_A4.1_[T5A]_[T7C]_F4.1_[T8A]_[A9G]_T4.1 (ssRNA)
RNA: B1 RNA with U33A, G35A, U36G
B26: Ic_S2_P4E.1_K4.1_C4.1_H4.1_A4.1_[T5A]_[A6C]_F4.1_[T8G]_[A9G]_T4.1 (ssRNA)
RNA: B1 RNA with U33C, C34U, U36G
B27: Ic_S2_P4E.1_K4.1_C4.1_H4.1_A4.1_[T5A]_[T7C]_F4.1_[T8A]_T4.1 (ssRNA)
RNA: B1 RNA with U33A, G35A, U36A
B28: Ic_S2_P4E.1_K4.1_C4.1_H4.1_A4.1_[T5A]_[A6C]_F4.1_[T8G]_[A9T]_T4.1 (ssRNA)
RNA: B1 RNA with U33C, C34U
B29: Ia_S1_P4E.1_K4.1_C4.1_H4.1_[T1C]_A4.1_F4.1_T4.1 (ssRNA)
RNA: UCUCUUCGUAUAUUAUCUCUU

Target: T1, PUF4 RNA-binding domain
Assay: Mg; RNA-MaP; 20 mM Na-HEPES pH 7.4, 30 mM KOAc, 0.75 mM MgCl2, 0.1% Tween-20, 5% glycerol, 0.1 mg/mL BSA, 2 mM DTT; 25 C; 0.0125-409.6 nM protein
Conditions: tags: N-His6-TEV cleaved; C-SNAP kept, Cy3B-labelled; label: tethered on chip by stalled RNA polymerase

Row | Binder | Kd [nM]
1 | B1 | 335
2 | B2 | 224
3 | B3 | 117
4 | B4 | 24.7
5 | B5 | 1040
6 | B6 | 558
7 | B7 | 1120
8 | B8 | 14.6
9 | B9 | 36.2
10 | B10 | 1310
11 | B11 | 128
12 | B12 | 1670
13 | B13 | 23.4
14 | B14 | 67.7
15 | B15 | 528
16 | B16 | 65.2
17 | B17 | 29.3
18 | B18 | 22.4
19 | B19 | 385
20 | B20 | 946
21 | B21 | 629
22 | B22 | 48
23 | B23 | 1.45
24 | B24 | 11.1
25 | B25 | 1140
26 | B26 | 701
27 | B27 | 57.8
28 | B28 | 61.3
29 | B29 | 20.9

Source: paper PMC9352680, “A comprehensive thermodynamic model for RNA binding by the Saccharomyces cerevisiae Pumilio protein PUF4”
